“Also recorded” adds a separate entry of the source.
Columns and labels:
[1] = Serum phosphate and intact FGF23 after sKL injection in rats; type: in vivo, rat; settings: sKL 100 μg/kg tail vein
Method: To determine the half-life of recombinant sKL protein in the circulation, rats were injected with the Strep-tagged mouse sKL that was purified as described above. Each group consisted of 3 male Sprague Dawley rats (9 weeks of age and weighing approximately 300 g). For injections and bleeding, rats were anesthetized with 2.5% isoflurane. For injections, a shielded i.v. catheter (BD Insyte Autoguard 0.7×19 mm, catalog no. 381412) was inserted into the lateral tail vein and flushed with 100 μl of isotonic saline (0.9%). One milliliter of purified sKL protein dissolved in isotonic saline (100 μg/kg) or isotonic saline was then injected, and the catheter was flushed again with 100 μl of isotonic saline. For bleeding, a shielded i.v. catheter was inserted into the lateral tail vein. Blood samples (300 μl) were taken after 1, 3, 5, 10, 15, 30, and 60 minutes as well as 3, 6, 12, and 48 hours. For collections from 15 minutes to 48 hours postinjection, a separate i.v. catheter was inserted each time to draw blood. […] Reactions were stopped with ELISA stop solution (E115, Bethyl Laboratories) and analyzed using the Synergy HI plate reader (BioTek) at 450 nm wavelength. Amounts of sKL were calculated by taking the slope of the standard curve and calculating where the sample points fit in.

male BALB/c mice = assay: Serial FGF23 and heparin injections in mice, echocardiography and heart weight; type: in vivo, mouse; settings: heparin 125 USP/kg and/or FGF23 40 μg/kg
Method: FGF23 injections were administered following a similar protocol established previously. 13,72,73 Briefly, 12-week-old male BALB/c mice (The Jackson Laboratory) underwent tail vein injections. The day before the experiment, mice underwent echocardiographic analysis, as described below. Mice were anesthetized in 2.5% isoflurane and placed on a heat pad. Each group consisted of 5 mice, and different groups were injected with isotonic saline, heparin, FGF23, or FGF23 and heparin combined. Per injection, 40 μg/kg of FGF23 and 125, 62.5, or 12.5 USP/kg of heparin dissolved in 200 μl of isotonic saline were used, with 8 hours were used between injections for a total of 5 consecutive days. All injections were performed via the lateral tail vein. On the morning of the sixth day, 16 hours after the final tail vein injection, animals underwent echocardiographic analysis and were killed. Middle sections of hearts were cut along the short axis and stored overnight in 4% phosphate-buffered formaldehyde solution. Sections were sent to IDEXX Laboratories for embedding, hematoxylin and eosin (H&E) staining, and sectioning. Sections for wheat germ agglutinin (WGA) labeling were not stained by IDEXX Laboratories.
Echocardiographic analysis was performed on day 6 of the experiment for FGF23-injected mice by using the Vevo 770 or Vevo 3100 imaging system (FUJIFILM VisualSonics). Animals were anesthetized with 1.5% isoflurane, and normal body temperature was maintained using a rectal probe for temperature monitoring. For analysis, both B- and M-mode images were obtained in the short- and long-axis views. Correct positioning of the transducer was ensured using B-mode imaging in the long-axis view before switching to the short-axis view. Image analysis was performed using Vevo 770 Workstation and Vevo LAB software (FUJIFILM VisualSonics).

Molecule	serum phosphate levels ([1]; serial bleeds)	serum intact FGF23 levels ([1]; serial bleeds incl. 48 hours)	Endocardial % EF (male BALB/c mice) [%]	Endocardial % FAC (male BALB/c mice) [%]	Endocardial Area; s (male BALB/c mice) [mm²]	Endocardial major; d (male BALB/c mice) [mm]	Epicardial Area: s (male BALB/c mice) [mm²]	Epicardial Area; d (male BALB/c mice) [mm²]	Heart rate (male BALB/c mice) [BPM]	LV Mass; d (male BALB/c mice) [mg]	T; d (male BALB/c mice) [mm]	Endocardial Area; d (male BALB/c mice; i.v. 2 times per day for 5 days, mean ± SEM) [mm²]
sKL: recombinant soluble α-klotho ectodomain, mouse aa 35-982 and human aa 34-981, FLAG- or Strep/His-tagged, purified from HEK293 cells (protein, left off: small tags and cut ends, recombinant soluble α-klotho ectodomain, mouse aa 35-982 and human aa 34-981, FLAG- or Strep/His-tagged, purified from HEK293 cells) EPGDGAQTWARFSRPPAPEAAGLFQGTFPDGFLWAVGSAAYQTEGGWQQHGKGASIWDTFTHHPLAPPGDSRNASLPLGAPSPLQPATGDVASDSYNNVFRDTEALRELGVTHYRFSISWARVLPNGSAGVPNREGLRYYRRLLERLRELGVQPVVTLYHWDLPQRLQDAYGGWANRALADHFRDYAELCFRHFGGQVKYWITIDNPYVVAWHGYATGRLAPGIRGSPRLGYLVAHNLLLAHAKVWHLYNTSFRPTQGGQVSIALSSHWINPRRMTDHSIKECQKSLDFVLGWFAKPVFIDGDYPESMKNNLSSILPDFTESEKKFIKGTADFFALCFGPTLSFQLLDPHMKFRQLESPNLRQLLSWIDLEFNHPQIFIVENGWFVSGTTKRDDAKYMYYLKKFIMETLKAIKLDGVDVIGYTAWSLMDGFEWHRGYSIRRGLFYVDFLSQDKMLLPKSSALFYQKLIEKNGFPPLPENQPLEGTFPCDFAWGVVDNYIQVDTTLSQFTDLNVYLWDVHHSKRLIKVDGVVTKKRKSYCVDFAAIQPQIALLQEMHVTHFRFSLDWALILPLGNQSQVNHTILQYYRCMASELVRVNITPVVALWQPMAPNQGLPRLLARQGAWENPYTALAFAEYARLCFQELGHHVKLWITMNEPYTRNMTYSAGHNLLKAHALAWHVYNEKFRHAQNGKISIALQADWIEPACPFSQKDKEVAERVLEFDIGWLAEPIFGSGDYPWVMRDWLNQRNNFLLPYFTEDEKKLIQGTFDFLALSHYTTILVDSEKEDPIKYNDYLEVQEMTDITWLNSPSQVAVVPWGLRKVLNWLKFKYGDLPMYIISNGIDDGLHAEDDQLRVYYMQNYINEALKAHILDGINLCGYFAYSFNDRTAPRFGLYRYAADQFEPKASMKHYRKIIDSNGFPGPETLERFCPEEFTVCTECSFFHTRKS	not significantly altered	increases in serum concentrations of FGF23; also recorded: significantly elevated										
FGF23: recombinant fibroblast growth factor 23 protein from R&D Systems (protein) YPDTSPLLGSNWGSLTHLYTATARTSYHLQIHRDGHVDGTPHQTIYSALMITSEDAGSVVITGAMTRRFLCMDLHGNIFGSLHFSPENCKFRQWTLENGYDVYLSQKHHYLVSLGRAKRIFQPGTNPPPFSQFLARRNEVPLLHFYTVRPRRHTRSAEDPPERDPLNVLKPRPRATPVPVSCSRELPSAEEGGPAASDPLGVLRRGRGDARGGAGGADRCRPFPRFV			61.57 ± 3.48	51.38 ± 2.02	4.88 ± 0.34	7.94 ± 0.09	19.4 ± 0.46	23.1 ± 0.45	452.70 ± 4.48	122.10 ± 3.05	0.94 ± 0.02	9.93 ± 0.39
